How the values were obtained:
[1] = molecular target: T1, Rv0078 R48M (Mycobacterium tuberculosis, UniProt O53623 1-201, R48M); assay: EMSA; […], room temperature 30 min; […], buffer not stated; settings: protein: recombinant; chain copies: 2; label: 5'-IRDye700 on S21
T1 sequence: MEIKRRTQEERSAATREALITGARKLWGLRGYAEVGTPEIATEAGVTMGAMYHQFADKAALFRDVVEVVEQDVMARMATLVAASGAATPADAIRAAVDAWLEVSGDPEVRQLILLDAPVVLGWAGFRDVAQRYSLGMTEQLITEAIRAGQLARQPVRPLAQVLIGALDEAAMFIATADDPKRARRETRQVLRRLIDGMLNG

[2] = molecular target: T2, Rv0078 (Mycobacterium tuberculosis, UniProt O53623 1-201); assay: as above; settings: protein: recombinant; tags: C-terminal His6; chain copies: 4; label: IRDye700
T2 sequence: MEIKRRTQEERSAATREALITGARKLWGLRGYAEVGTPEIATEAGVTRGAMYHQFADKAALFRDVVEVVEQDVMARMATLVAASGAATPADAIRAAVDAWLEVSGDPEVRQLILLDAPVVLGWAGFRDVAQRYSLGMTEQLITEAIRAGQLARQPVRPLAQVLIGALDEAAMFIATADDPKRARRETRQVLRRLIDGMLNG

Row | Binder | binding result [1] | binding result [2]
1 | +19/-14 (WT) (dsDNA) DNA 1: GTACATTTACAAGCAGACTGCCGGTAACTTACCCCAGACCAGGGCAC DNA 2: GTGCCCTGGTCTGG DNA 3: GGTAAGTTACCGGCAGTCTGCTTGTAAATGTAC | no binding | –
2 | probe S1 (central dimer G-to-A) (dsDNA) DNA 1: GTACATTTACAAGTAGACTACCGGTAACTTACC DNA 2: GGTAAGTTACCGGTAGTCTACTTGTAAATGTAC | – | no binding

From publication PMC6016246, “Cytokinin Signaling in Mycobacterium tuberculosis” (mBio, 2018)
